This note sets out measurements from patent publication US20250325718A1, “IMMUNOCONJUGATES COMPRISING KALLIKREIN RELATED PEPTIDASE 2 ANTIGEN BINDING DOMAINS AND THEIR USES” (Janssen Biotech, Inc., priority 2021, published 2025).

Bounds are passed on as bounds.

A short description of this data set: DTPA challenge of Ac-225 labeled TOPA-[C7]-phenylthiourea-h11B6 (iTLC). The class given is physicochemical. The conditions noted are these: for DTPA challenge: chelated Ac-225 (iTLC): labeling reaction mixture, 10 mM DTPA pH 6.5, 37° C., 30 min. As for the experimental part: 0.5 μL of the labeling reaction mixture was also mixed with 10 mM DTPA (pH=6.5, 15 μL) at 37° C. After 30 min, 10 μL of the mixture was spotted on iTLC-SG and developed by 10 mM EDTA. The dried iTLC-SG was left at room temperature for overnight before it was scanned on a Bioscan AR-2000 radio-TLC scanner. Under the elution conditions described herein, TOPA-[C7]-phenylthiourea-h11B6 chelated Ac-225 ^st ayed at the origin and any free Ac-225 would migrate with the solvent to the solvent front.
10 μL of fraction #3 collected after PD-10 column was mixed with 15 μL of 10 mM DTPA solution (pH 6.5), and incubated for 30 min. 10 μL of the mixture was loaded onto an iTLC-SG, which was developed with 10 mM EDTA and dried overnight. It was scanned on a Bioscan AR-2000 radio-TLC scanner.

Where [1] appears, read: 25 mM NaOAc, 0.04% PS-20, pH 5.5 (conjugate 10.4 mg/mL).
[2] abbreviates: 1.0M NaOAc, 0.04% PS-20 (conjugate 9.36 mg/mL).
Where [3] appears, read: 1.5M NaOAc, 0.04% PS-20 (conjugate 9.36 mg/mL).
The mark [4] stands for this setting: 3M NaOAc buffer (conjugate […]).

Regarding “Ac-225 labeled TOPA-[C7]-phenylthiourea-h11B6 antibody conjugate [Example 21]”, for the setting “fraction #3 after PD-10 column, 10 mM DTPA pH 6.5, 30 min”, the “DTPA challenge of the purified conjugate: free Ac-225 (iTLC)” value is recorded as “no free Ac-225”. Further, the “DTPA challenge: chelated Ac-225 (iTLC)” value reads like this: under setting [1], 99.8%; under setting [2], 99.9%; under setting [3], 99.9%; under setting [4], 99.7%.

In the case of “TOPA-[C7]-phenylthiourea-h11B6 Antibody Conjugate [Example 20]”, the “DTPA challenge: chelated Ac-225 (iTLC)” value by setting is: under setting [1], greater than 99%; under setting [2], greater than 99%; under setting [3], greater than 99%; under setting [4], greater than 99%.
